Test results taken from publication PMC6018426, “Crystal structure of the catalytic domain of HIV-1 restriction factor APOBEC3G in complex with ssDNA”.

B1: 9nt polyA (ssDNA)
DNA: AAAAAAAAA
B2: 9nt RNA (ssRNA)
RNA: AAUCCCAAA
B3: 9nt substrate ssDNA (ssDNA)
DNA: AATCCCAAA

Columns and labels:
[1] = molecular target: CTD2* (A3G-CTD2 E259A), GST-purified (Homo sapiens, UniProt Q9HC16 191-384, P200A;L234K;N236A;C243A;P247K;E259A;F310K;Q318K;C321A;Q322A;C356A); assay: competition; EMSA; unlabeled competitor 25-2500 nM against N2; band not affected; 20 mM Bis-Tris pH 6.5, 100 mM NaCl, 1 mM DTT, 0.002% Tween 20; ZnCl2 20 uM (MST) or 10 uM (EMSA); MST incubated at 4 C, measured at room temperature; EMSA incubated 1 h at room temperature, gel at 4 C; settings: protein: recombinant; tags: GST removed by PreScission protease (pGEX6P-1)
[2] = molecular target: CTD2* (A3G-CTD2 E259A), His-tagged (Homo sapiens, UniProt Q9HC16 191-384, P200A;L234K;N236A;C243A;P247K;E259A;F310K;Q318K;C321A;Q322A;C356A); assay: MST; Zn2+ (20 uM ZnCl2); 20 mM Bis-Tris pH 6.5, 100 mM NaCl, 1 mM DTT, 0.002% Tween 20; ZnCl2 20 uM (MST) or 10 uM (EMSA); MST incubated at 4 C, measured at room temperature; EMSA incubated 1 h at room temperature, gel at 4 C; settings: protein: recombinant; tags: poly-His (pET-28a), RED-tris-NTA dye
CTD2* (A3G-CTD2 E259A), His-tagged, sequence (Q9HC16 191-384 P200A/L234K/N236A/C243A/P247K/E259A/F310K/Q318K/C321A/Q322A/C356A): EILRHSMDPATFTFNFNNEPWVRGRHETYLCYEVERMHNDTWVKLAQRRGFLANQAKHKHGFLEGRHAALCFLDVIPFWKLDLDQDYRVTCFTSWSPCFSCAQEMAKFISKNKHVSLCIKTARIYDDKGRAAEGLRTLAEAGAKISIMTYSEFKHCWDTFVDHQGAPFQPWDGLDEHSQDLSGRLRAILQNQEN

CTD2* (A3G-CTD2 E259A), GST-purified, sequence (Q9HC16 191-384 P200A/L234K/N236A/C243A/P247K/E259A/F310K/Q318K/C321A/Q322A/C356A): as above

Binder | binding result [1] | Kd [2] [µM]
B1 | no binding | –
B2 | – | 1500 ± 500
B3 | – | 55 ± 12
